These results are taken from US20210356479A1 (BLOODWORKS, published 2021).

Assay [1] addresses T1, human Kell glycoprotein, k form (KEL2) (human, UniProt P23276 1-732).
T1 construct: whole, on cells; On human k/k or K-k+ RBCs; also called k antigen
T1 sequence (looked up): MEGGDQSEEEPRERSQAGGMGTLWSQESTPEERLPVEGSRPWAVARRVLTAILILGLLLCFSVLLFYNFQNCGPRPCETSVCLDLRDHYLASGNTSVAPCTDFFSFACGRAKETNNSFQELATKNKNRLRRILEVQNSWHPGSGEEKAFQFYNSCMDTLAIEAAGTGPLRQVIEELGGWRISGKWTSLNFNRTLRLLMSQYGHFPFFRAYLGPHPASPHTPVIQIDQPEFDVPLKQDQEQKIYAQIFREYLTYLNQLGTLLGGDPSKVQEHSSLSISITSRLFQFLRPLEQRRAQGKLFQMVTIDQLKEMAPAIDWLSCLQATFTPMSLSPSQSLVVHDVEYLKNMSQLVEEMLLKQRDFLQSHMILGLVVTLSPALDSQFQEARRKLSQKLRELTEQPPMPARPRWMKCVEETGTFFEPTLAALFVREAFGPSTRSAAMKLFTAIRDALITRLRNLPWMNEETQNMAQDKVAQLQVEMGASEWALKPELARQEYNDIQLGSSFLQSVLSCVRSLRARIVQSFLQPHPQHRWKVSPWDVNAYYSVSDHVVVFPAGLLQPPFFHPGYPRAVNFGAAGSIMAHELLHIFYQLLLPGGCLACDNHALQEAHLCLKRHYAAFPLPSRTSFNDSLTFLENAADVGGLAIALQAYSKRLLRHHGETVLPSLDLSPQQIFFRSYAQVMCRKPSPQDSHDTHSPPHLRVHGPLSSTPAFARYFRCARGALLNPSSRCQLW
The experiment in a line: flow cytometry on human K-k+ RBCs. In general terms: Flow cytometry measures light scatter and fluorescence of single cells or particles in a stream.

Assay [2] deals with T2, human Kell glycoprotein, K form (KEL1) (human, UniProt P23276 1-732).
T2 construct: whole, on cells; On human K/K or K+k+ RBCs and on RBCs of K transgenic mice; also called K antigen; K variant
T2 sequence (looked up): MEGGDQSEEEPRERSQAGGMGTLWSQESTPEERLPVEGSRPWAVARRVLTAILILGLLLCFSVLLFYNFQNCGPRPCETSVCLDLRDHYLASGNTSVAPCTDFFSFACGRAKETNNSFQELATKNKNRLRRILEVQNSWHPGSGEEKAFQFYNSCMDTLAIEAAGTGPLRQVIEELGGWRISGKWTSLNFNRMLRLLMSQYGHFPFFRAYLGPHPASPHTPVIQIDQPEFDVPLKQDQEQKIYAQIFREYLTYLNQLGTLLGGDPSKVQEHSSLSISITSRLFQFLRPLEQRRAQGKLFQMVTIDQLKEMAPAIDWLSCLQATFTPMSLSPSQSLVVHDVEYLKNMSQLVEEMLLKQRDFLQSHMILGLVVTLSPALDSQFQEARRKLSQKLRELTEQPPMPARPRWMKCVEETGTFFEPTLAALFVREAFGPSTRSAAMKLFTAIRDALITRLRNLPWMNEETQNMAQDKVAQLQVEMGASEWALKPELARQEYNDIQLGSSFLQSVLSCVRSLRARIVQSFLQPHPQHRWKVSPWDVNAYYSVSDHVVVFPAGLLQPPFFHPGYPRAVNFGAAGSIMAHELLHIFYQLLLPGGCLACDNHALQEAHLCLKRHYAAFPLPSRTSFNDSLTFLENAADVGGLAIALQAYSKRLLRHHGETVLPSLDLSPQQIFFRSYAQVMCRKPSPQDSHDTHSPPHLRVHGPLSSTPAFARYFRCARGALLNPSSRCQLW
The assay can be described thus: flow cytometry on human K+k+ RBCs, detected with polyclonal anti-IgG. As for the experimental part:
Flow cytometry consisted of incubating test RBCs with PUMA 1 variants, followed by the anti-IgG being evaluated, followed by a detection reagent. Test RBCs included RBCs from K mice, wild-type mice, and reagent RBCs from humans with the phenotype of (K+k+) or (K−k+). Test RBCs were resuspended in 50 microliters of supernatants of PUMA 1 isoallotypes; in some cases a 1/10 dilution in phosphate buffered saline (PBS) was used. For purified IgG1-IgG4 PUMA 1, the antibodies were diluted in PBS at the indicated concentrations. The tested anti-IgG reagents were used undiluted. Detection reagents consisted of donkey anti-rabbit conjugated to phycoerythrin at a 1/200 dilution (Affymetrix cat #12-4739-81, Santa Clara, Calif.), goat anti-mouse IgM conjugated to allophycocyanin at a 1/100 dilution (BD Biosciences, cat #550826, San Jose, Calif.), and goat anti-mouse Igs conjugated to allophycocyanin at a 1/100 dilution (SouthernBiotech cat #1020-11s, Birmingham, Ala.). All anti-IgG subclass antibodies were conjugated to phycoerythrin, were purchased from SouthernBiotech (catalog numbers 9056-09, 9070-09, 9210-09, 9200-09), and were used at a dilution of 1.200. All incubations were performed for 30 min at room temperature, followed by three washes with PBS. All flow cytometry was performed on an Accuri 4 color cytometer (BD biosciences, San Jose Calif.) and all data was analyzed with Flo-Jo version 10.
To assess the sensitivity of commercially available anti-IgG preparations for different human IgG subclasses bound to RBCs, K+k+ RBCs were first incubated with PUMA 1 of the different human IgG subclasses, followed by incubation with anti-IgG. Treated RBCs were then stained with a fluorescently labeled antibody specific for the species in which the anti-IgG was generated (and non-reactive with human IgG). For each anti-IgG, the same secondary antibody was used to detect binding of the anti-IgG to each human PUMA 1 IgG subclass. To assess relative sensitivity, titrations of each PUMA 1 IgG subclass were carried out and samples were analyzed by flow cytometry using mean fluorescent intensity (MFI) to quantify staining (FIGS. 28A, 28B).

B1: PUMA 1 human IgG1-04v2 isoallotype (antibody)
heavy: EVQLQQSGPELVKPGASVKMSCKASGYTFTDYYMKWVKQSHGKSLEWIGDLNPNNGDTFYNQKFKGKATLTVDKSSSTAYIQLNSLTSEDSAVYYCAREAGSSFGSSCNYWGQGTTLTVS
light: SVVMTQTPKFLLVSAGDRVTITCKASQTVSKDVAWYQQQPGQSPKLLIYYASNRYTGVPDRFTGSGYGTDFTFTISTVQAEDLAVYFCQQDYSSPYTFGGGTKLEIK
notes: Isoallotype named in CLM-00007; also called IGHG1*04v2; not shown: human IgG1 heavy chain constant region, isoallotype IGHG1*04v2; human kappa light chain constant region (vector pFUSE2-CLIg-hk)
B1: the binding result in assay [1] is “no binding”; in assay [2], “binds”.

B2: PUMA 1 human IgG3-04 isoallotype (antibody)
heavy: EVQLQQSGPELVKPGASVKMSCKASGYTFTDYYMKWVKQSHGKSLEWIGDLNPNNGDTFYNQKFKGKATLTVDKSSSTAYIQLNSLTSEDSAVYYCAREAGSSFGSSCNYWGQGTTLTVS
light: SVVMTQTPKFLLVSAGDRVTITCKASQTVSKDVAWYQQQPGQSPKLLIYYASNRYTGVPDRFTGSGYGTDFTFTISTVQAEDLAVYFCQQDYSSPYTFGGGTKLEIK
notes: Isoallotype named in CLM-00007; not shown: human IgG3 heavy chain constant region, isoallotype IGHG3*04; human kappa light chain constant region (vector pFUSE2-CLIg-hk)
B2: the binding result in assay [1] is listed as “no binding”; in assay [2] it was “binds”.

B3: PUMA 1 human IgG2-06 isoallotype (antibody)
heavy: EVQLQQSGPELVKPGASVKMSCKASGYTFTDYYMKWVKQSHGKSLEWIGDLNPNNGDTFYNQKFKGKATLTVDKSSSTAYIQLNSLTSEDSAVYYCAREAGSSFGSSCNYWGQGTTLTVS
light: SVVMTQTPKFLLVSAGDRVTITCKASQTVSKDVAWYQQQPGQSPKLLIYYASNRYTGVPDRFTGSGYGTDFTFTISTVQAEDLAVYFCQQDYSSPYTFGGGTKLEIK
notes: Isoallotype named in CLM-00007; not shown: human IgG2 heavy chain constant region, isoallotype IGHG2*06; human kappa light chain constant region (vector pFUSE2-CLIg-hk)
Turning to B3, the results for the binding result in assay [1] and in assay [2] were “no binding” and “binds”, respectively.

B4: PUMA 1 human IgG3-08 isoallotype (antibody)
heavy: EVQLQQSGPELVKPGASVKMSCKASGYTFTDYYMKWVKQSHGKSLEWIGDLNPNNGDTFYNQKFKGKATLTVDKSSSTAYIQLNSLTSEDSAVYYCAREAGSSFGSSCNYWGQGTTLTVS
light: SVVMTQTPKFLLVSAGDRVTITCKASQTVSKDVAWYQQQPGQSPKLLIYYASNRYTGVPDRFTGSGYGTDFTFTISTVQAEDLAVYFCQQDYSSPYTFGGGTKLEIK
notes: Isoallotype named in CLM-00007; not shown: human IgG3 heavy chain constant region, isoallotype IGHG3*08; human kappa light chain constant region (vector pFUSE2-CLIg-hk)
Take B4: the binding result in assay [1] is on record as “no binding”; in assay [2] it was “binds”.

B5: PUMA 1 human IgG3-11 isoallotype (antibody)
heavy: EVQLQQSGPELVKPGASVKMSCKASGYTFTDYYMKWVKQSHGKSLEWIGDLNPNNGDTFYNQKFKGKATLTVDKSSSTAYIQLNSLTSEDSAVYYCAREAGSSFGSSCNYWGQGTTLTVS
light: SVVMTQTPKFLLVSAGDRVTITCKASQTVSKDVAWYQQQPGQSPKLLIYYASNRYTGVPDRFTGSGYGTDFTFTISTVQAEDLAVYFCQQDYSSPYTFGGGTKLEIK
notes: Isoallotype named in CLM-00007; not shown: human IgG3 heavy chain constant region, isoallotype IGHG3*11; human kappa light chain constant region (vector pFUSE2-CLIg-hk)
B5: the values for the binding result in assay [1] and in assay [2] were “no binding” and “binds”, respectively.

B6: PUMA 1 human IgG2-04 isoallotype (antibody)
heavy: EVQLQQSGPELVKPGASVKMSCKASGYTFTDYYMKWVKQSHGKSLEWIGDLNPNNGDTFYNQKFKGKATLTVDKSSSTAYIQLNSLTSEDSAVYYCAREAGSSFGSSCNYWGQGTTLTVS
light: SVVMTQTPKFLLVSAGDRVTITCKASQTVSKDVAWYQQQPGQSPKLLIYYASNRYTGVPDRFTGSGYGTDFTFTISTVQAEDLAVYFCQQDYSSPYTFGGGTKLEIK
notes: Isoallotype named in CLM-00007; not shown: human IgG2 heavy chain constant region, isoallotype IGHG2*04; human kappa light chain constant region (vector pFUSE2-CLIg-hk)
With B6, the binding result in assay [1] is reported as “no binding”; in assay [2], “binds”.

B7: PUMA 1 human IgG2-02 isoallotype (antibody)
heavy: EVQLQQSGPELVKPGASVKMSCKASGYTFTDYYMKWVKQSHGKSLEWIGDLNPNNGDTFYNQKFKGKATLTVDKSSSTAYIQLNSLTSEDSAVYYCAREAGSSFGSSCNYWGQGTTLTVS
light: SVVMTQTPKFLLVSAGDRVTITCKASQTVSKDVAWYQQQPGQSPKLLIYYASNRYTGVPDRFTGSGYGTDFTFTISTVQAEDLAVYFCQQDYSSPYTFGGGTKLEIK
notes: Isoallotype named in CLM-00007; not shown: human IgG2 heavy chain constant region, isoallotype IGHG2*02; human kappa light chain constant region (vector pFUSE2-CLIg-hk)
Consider B7, for which the binding result in assay [1] was “no binding”; in assay [2], “binds”.

B8: PUMA 1 human IgG3-03 isoallotype (antibody)
heavy: EVQLQQSGPELVKPGASVKMSCKASGYTFTDYYMKWVKQSHGKSLEWIGDLNPNNGDTFYNQKFKGKATLTVDKSSSTAYIQLNSLTSEDSAVYYCAREAGSSFGSSCNYWGQGTTLTVS
light: SVVMTQTPKFLLVSAGDRVTITCKASQTVSKDVAWYQQQPGQSPKLLIYYASNRYTGVPDRFTGSGYGTDFTFTISTVQAEDLAVYFCQQDYSSPYTFGGGTKLEIK
notes: also called PUMA1-IgG3-03; not shown: human kappa light chain constant region (vector pFUSE2-CLIg-hk)
For B8, the binding result in assay [1] is “no binding”; in assay [2], “binds”.

B9: PUMA 1 human IgG3-13 isoallotype (antibody)
heavy: EVQLQQSGPELVKPGASVKMSCKASGYTFTDYYMKWVKQSHGKSLEWIGDLNPNNGDTFYNQKFKGKATLTVDKSSSTAYIQLNSLTSEDSAVYYCAREAGSSFGSSCNYWGQGTTLTVS
light: SVVMTQTPKFLLVSAGDRVTITCKASQTVSKDVAWYQQQPGQSPKLLIYYASNRYTGVPDRFTGSGYGTDFTFTISTVQAEDLAVYFCQQDYSSPYTFGGGTKLEIK
notes: also called PUMA1-IgG3-13; not shown: human kappa light chain constant region (vector pFUSE2-CLIg-hk)
Take B9: the binding result in assay [1] is given as “no binding”; in assay [2], “binds”.

B10: PUMA 1 human IgG3-09 isoallotype (antibody)
heavy: EVQLQQSGPELVKPGASVKMSCKASGYTFTDYYMKWVKQSHGKSLEWIGDLNPNNGDTFYNQKFKGKATLTVDKSSSTAYIQLNSLTSEDSAVYYCAREAGSSFGSSCNYWGQGTTLTVS
light: SVVMTQTPKFLLVSAGDRVTITCKASQTVSKDVAWYQQQPGQSPKLLIYYASNRYTGVPDRFTGSGYGTDFTFTISTVQAEDLAVYFCQQDYSSPYTFGGGTKLEIK
notes: Isoallotype named in CLM-00007; not shown: human IgG3 heavy chain constant region, isoallotype IGHG3*09; human kappa light chain constant region (vector pFUSE2-CLIg-hk)
Regarding B10, the binding result in assay [1] is given as “no binding”; in assay [2], “binds”.

B11: PUMA 1 human IgG3-06 isoallotype (antibody)
heavy: EVQLQQSGPELVKPGASVKMSCKASGYTFTDYYMKWVKQSHGKSLEWIGDLNPNNGDTFYNQKFKGKATLTVDKSSSTAYIQLNSLTSEDSAVYYCAREAGSSFGSSCNYWGQGTTLTVS
light: SVVMTQTPKFLLVSAGDRVTITCKASQTVSKDVAWYQQQPGQSPKLLIYYASNRYTGVPDRFTGSGYGTDFTFTISTVQAEDLAVYFCQQDYSSPYTFGGGTKLEIK
notes: Isoallotype named in CLM-00007; also called PUMA1-IgG3-6; not shown: human IgG3 heavy chain constant region, isoallotype IGHG3*06; human kappa light chain constant region (vector pFUSE2-CLIg-hk)
For the molecule B11, the binding result is recorded as “no binding” in assay [1] and “binds” in assay [2].

B12: PUMA 1 human IgG3-12 isoallotype (antibody)
heavy: EVQLQQSGPELVKPGASVKMSCKASGYTFTDYYMKWVKQSHGKSLEWIGDLNPNNGDTFYNQKFKGKATLTVDKSSSTAYIQLNSLTSEDSAVYYCAREAGSSFGSSCNYWGQGTTLTVS
light: SVVMTQTPKFLLVSAGDRVTITCKASQTVSKDVAWYQQQPGQSPKLLIYYASNRYTGVPDRFTGSGYGTDFTFTISTVQAEDLAVYFCQQDYSSPYTFGGGTKLEIK
notes: Isoallotype named in CLM-00007; not shown: human IgG3 heavy chain constant region, isoallotype IGHG3*12; human kappa light chain constant region (vector pFUSE2-CLIg-hk)
For B12, the binding result in assay [1] is on record as “no binding”; in assay [2] it was “binds”.
